Laboratory results taken from the DeepSol protein solubility set.

Experiment: soluble on expression in E. coli; label from the status in PepcDB or PDB records
For “MSNVLTEIDSQYPYMTKNEKKIAKFILNSPQKVIKMRSQDLASLLDISTSSVIRFSKKITDGGFHDLKINISKYVPKASSIYNVELMNNESTESLRTKLHTRTTRALNHANNELNDKTIDQICHCLKRSETIFIYGFGASFVVATDLYQKLSRIGLNIQLVQETHIFATLLATHNSNDSVILITNNGTQSEMQSMVKVIDDYHIPIITITSTRDNPVAQASNIVLTYGKTDENEMHMGATTSLFAQMFTIDILYYRYVALNYHASLDFITQSKMALDNYRKHLSNINFKH”, the “soluble on expression in E. coli” value was “not soluble”.
In the case of “MSLSIQSGEILETVKMVADQNFDVRTITIGIDLHDCISSDINVLNQNIYNKITTVGKDLVTTAKYLSAKYGVPIVNQRISVTPIAQIAAATHADSYVSVAQTLDKAAKAIGVSFIGGFSALVQKGMSPSDEVLIRSIPEAMKTTDIVCSSINIGSTRAGINMDAVKLAGETVKRTAEITPEGFGCAKIVVFCNAVEDNPFMAGAFHGSGEADAVINVGVSGPGVVKAALENSDATTLTEVAEVVKKTAFKITRVGELIGREASKMLNIPFGILDLSLAPTPAVGDSVARILEEMGLSVCGTHGTTAALALLNDAVKKGGMMASSAVGGLSGAFIPVSEDEGMIAAAEAGVLTLDKLEAMTAVCSVGLDMIAVPGDTPAHTISGIIADEAAIGMINSKTTAVRIIPVTGKTVGDSVEFGGLLGYAPVMPVKEGSCEVFVNRGGRIPAPVQSMKNEGHHHHHH”, the “soluble on expression in E. coli” value is reported as “soluble”.
With “MGSDKIHHHHHHMVRTTKFGDLPVLHVFAASQAQTKLPTIIDYHGWTNQTATELGTAYQLVRAGFRVILPTAYLHGSRNDGTDLDRHPEHFWSIVGHSVAEFPQLVAALVAAGISDANKIGVMGTSMGGITAAGIMATQPTVVAGVSLIGSPEPVAFATDQVAQLPAALQAKLPAELIEQTYQQLAKFDLSEHPEALAGRPMFFFNGTADQMVPYQYIRDFKHRFKDEPALKATVFKRAEGGVHHVPHKIQEAAVAFLETNILK” the “soluble on expression in E. coli” value was “not soluble”.
With “MAHHHHHHMSYSFVVVPPPVPAATPAFEAHVSTLLRHVPHPTFITCTSYSPYFTSAAAESLAAAADTADESANAMEASVTQQALSYLHQCVAADVGLVLTVTATRATSHAESVQSTQGGDQDSQQHPKQHTSSSSASMVPTTTTLTGASRGGTAAILADFIGRTSAAPATKLGTANSQEATRHRSRGLMVLRGDDGGYTRQCMIAAQKGGASASPPSLSPNPYVDFADGVDLLRFIHSTLRGRDGEAMCEITGDEPAGAAVCLCIGGYPQGHVLDRQWGADAATAAAVPSAQSPLPCQTLASLRFLDEVDTVFADTEAQLRRAQGTHSAPRPPSLESCVEAAEALFARLGAVRRLWTTPSYYPPSVRAACTRRTVANKVFLRPPGTRQCVADSAWDGCGSAGAHVVVTQVITSATEFFDYVEDIRNALRSSVPPARGVPCDRGRDGAAATEARGASVPCLQLRAASALPSSSPSLVIVPGLMAPLRAEQFLRSALQLKVIPSVPFQRALREYEGALHSAVETLRSAVSSNAIDVYAEAKERAEACFQEWMVAITVDIVRDLRARGYTHVNFSAFQYGCGDAVGCVVAALAAEGREEVVEEP” the “soluble on expression in E. coli” value was “not soluble”.
With “MGSDKIHHHHHHMSICIKDQIQNMNIVIGCTVGCAYCYARNNVKRWHMIDDFAAPEFFPGKLKMMEKKRPQNFLLTGMSDLSGWKPEWRNVVFAKIRENPQHQFLFLTKRPDLLDFDTDLENAWFGVTVTRKAELWRIDALRKNVRAKHYHVTFEPLFDDPGTVDLSGINWIVVGTMTGAQSRKIHTEPEWAWSLADQAHKLGIPVFMKEDIVPIIGDENMIQEMPEEFNKVLEVQKSWKK” the “soluble on expression in E. coli” value was “not soluble”.
With “MSLRTTIADVAQAAGVSVSTVSRALRGLDRVSPETRERIEQEAKRLHFSFSKSASSLASGKTMRVAVLLPNEISSWFNAHAFEGIYEVMSKAGYDIVPYIVWTQDDLDAFFQNLPGNRNVDAVIEASFDFDEAKKQVLGNLTIPVVGMNAPSTHGLDAGVAIDDEASMATIVRFLKSLGHKTLAYIEQPINTTPFVCSDRLRKKGFSEASQACGYADEDIIVMPSLSHIDARSEQDIYSGIVAQLLSAPKQPTAICVSVDAVAAPLLKELRRMGWRVPQDVSLVGFDDDDTATALDLTTMHQDPAEIGRIAARKTLALLNGETLDEPFTVMPTSLVLRGTTERVSEGHHHHHH” the “soluble on expression in E. coli” value was “soluble”.
In the case of “MGHHHHHHSHMKPVKHLLTTSNKSANVPALTTKKGLHNLPLSPELKEKHNAKLIHDKIEPMVLRSPPTGESILRYALPIPSSKTKNLLPEDEMIGKIIKHLKMVVSTLEETYGHCDQNGEEPFVKHEHEELSLSVGDDMNSFLTYCSQFAAQLEEALKEEQNILESLFKWFQWQVNQMEEISKDQTLLQAEPPKPDKTVILNIAEIVRLVQRFEELKNRLKQRSKSSVKVMLSKTMDKENRPEAVKSCEALAQKIEEFLEAHSTDEFKDVSATEPQL”, the “soluble on expression in E. coli” value is reported as “soluble”.
For “MSLNEIDNKLFLVYVGGTAPGANIELHDIRFVVGPSMEETYPAIRKGWFGTQKGLHLDSFVHLHHVDGYRIHLTSEAHEKPEEKRLYFVNFGGYFPNKLAEYHDFTVVVADSPQSAKQLARAQFSKAGLADAEQIHKDDLLAVDDCLCVDLVDNHYVTLEFDGEQQPLVPDWKGYQPLPEGHHHHHH”, the “soluble on expression in E. coli” value was “soluble”.
For “SGKVILITGASRGIGLQLVKTVIEEDDECIVYGVARTEAGLQSLQREYGADKFVYRVLDITDRSRMEALVEEIRQKHGKLDGIVANAGMLEPVKSISQSNSEHDIKQWERLFDVNFFSIVSLVALCLPLLKSSPFVGNIVFVSSGASVKPYNGWSAYGCSKAALNHFAMDIASEEPSDKVRAVCIAPGVVDTQMQKDIRETLGPQGMTPKALERFTQLYKTSSLLDPKVPAAVLAQLVLKGIPDSLNGQYLRYNDERLGPVQG”, the “soluble on expression in E. coli” value was “soluble”.
With “MSLRSEQEMMDIFLDFALNDERIRLVTLEGSRTNRNIPPDNFQDYDISYFVTDVESFKENDQWLEIFGKRIMMQKPEDMELFPPELGNWFSYIILFEDGNKLDLTLIPIREAEDYFANNDGLVKVLLDKDSFINYKVTPNDRQYWIKRPTAREFDDCCNEFWMVSTYVVKGLARNEILFAIDHLNEIVRPNLLRMMAWHIASQKGYSFSMGKNYKFMKRYLSNKEWEELMSTYSVNGYQEMWKSLFTCYALFRKYSKAVSEGLAYKYPDYDEGITKYTEGIYCSVKEGHHHHHH” the “soluble on expression in E. coli” value was “soluble”.
In the case of “MGSDKIHHHHHHMNKIAVIGKVFVDIKGTSFAPLHKDAKNVGDITFSNGGTGRNVAQNLAVLGNDVRFISTVTNDQIGVGVLEELKSYGANVDHVEMLEDHGMGMWLAVMDNEGDLQTSISKQPDAKLLEEAILRQSVYALDGVDAVAIDLDLSVTVLERLIHICRKMELPLYGVCGHLSVIERNRHLLQGFTGFICSREEAEILSDLSIVTVEDAIHVANELAKKGAPFTVVTMSELGAVYVDRRTATSGHVGTKKVKVVDSTGAGDSFFSAVLSELTESKRAEEALQLGMKVAAQVIASTENGLIPEMLETLR”, the “soluble on expression in E. coli” value is reported as “not soluble”.
For “MGSDKIHHHHHHLAQLYFYYSAMNAGKSTSLLQSSYNYRERGMNTLVLTAAIDDRYGVGKVASRIGIQADATVFGSEDNLMDLIATHHSQQQLHCVLVDESQFLSKTQVRQLTDVVDKLDIPVLCYGLRSDFRGELFIGSQYLLAWADKLVELKTICFCGRKANMVVRRDGAGNPVRDGAQVAIGGNESYESMCRKHFSELVWD”, the “soluble on expression in E. coli” value was “not soluble”.
With “MDKIPDIMAKIKTMAPAIRSIDTRTVKVAPKVADAELQSAEYRQWRNAVYRRAGYRCEAIDNGRRCTKAAPAHRLFADHIVERRDGGALLDAANGQCLCGSHHTRKTVAARAARLSSRSRGGGSNLLEHHHHHH” the “soluble on expression in E. coli” value was “soluble”.
In the case of “MKLTDRLLKIASLVSDGKKIADIGTDHGYIPVYLLKEGKVPFAVLADVNKGPLDNAHKEVIQNNLLDKVDLRLGSGIEILEIGEVEEVIIAGMGGILISELLEAKKEVAHNVEKLILQPMQAQEELRYYLLNNGYEILEEVLVREDFRIYEIIVAKYTGKNTIIEDEIYYEVGIKLLENKDSLFNDFIEKKIKTYSSIVNKLEGKNGEAIDKKRKESEVAIKKLENLIK”, the “soluble on expression in E. coli” value is reported as “not soluble”.
For “MAHHHHHHMPCNVSCSTSPNSVTGEPRFIMDFSMNKVAKYFRLLGYDTLCSRDVPQANLIPTACAEGRILVTCSRPLARSVQLHNQRVRTMRLGIAKAMTGAAHHVIAYDSDGESIYSEDSEEVDVELRCLFTQQWCSGEFKRAMIELIQQAGVTYDLNRVFRRCVTCNELLVTMEKEEVRGRVVAKIYEIYDEFTECPTCRKVFWGFDGVFAINYKSFRSLNLLRSLCICAGAPVEEERTRLNRLRCFRSFPRIAKVLIFSYLEDVDLANMTVVFPALRDLAEEVQASRQTGEPVRKMQLRKH”, the “soluble on expression in E. coli” value was “not soluble”.
For “MDIISLRKSPQYLEEAIAYFQRKWADENSRMVYDNCFRTCLESESPLPQWYLLINGEGEIIGCAGLATNDFNSRMDLYPWLVALFIEEQYRGHNYGNLLIKAVEEDTRRLGFGNLYLCTTHTGYYEHFNFVYIGDCYHPWGEHTR”, the “soluble on expression in E. coli” value was “not soluble”.
In the case of “MGKAKVPASKRAPSSPVAKPGPVKTLTRKKNKKKKRFWKSKAREVSKKPASGPGAVVRPPKAPEDFSQNWKALQEWLLKQKSQAPEKPLVISQMGSKKKPKIIQQNKKETSPQVKGEEMPAGKDQEASRGSVPSGSKMDRRAPVPRTKASGTEHNKKGTKERTNGDIVPERGDIEHKKRKAKEAAPAPPTEEDIWFDDVDPADIEAAIGPEAAKIARKQLGQSEGSVSLSLVKEQAFGGLTRALALDCEMVGVGPKGEESMAARVSIVNQYGKCVYDKYVKPTEPVTDYRTAVSGIRPENLKQGEELEVVQKEVAEMLKGRILVGHALHNDLKVLFLDHPKKKIRDTQKYKPFKSQVKSGRPSLRLLSEKILGLQVQQAEHCSIQDAQAAMRLYVMVKKEWESMARDRRPLLTAPDHCSDDA”, the “soluble on expression in E. coli” value is reported as “soluble”.
In the case of “ADQLLRKKRRIFIHSVGAGTINALLDCLLEDEVISQEDMNKVRDENDTVMDKARVLIDLVTGKGPKSCCKFIKHLCEEDPQLASKMGLH”, the “soluble on expression in E. coli” value is reported as “soluble”.
With “MGHHHHHHENLYFQSHLYFQSHERLSEKKIKNLLTSKQQRQQYEIKQRSMLRHLAELRRHSRFRRLCTKPASSSMPASTSSVDRRTTRRSTSQTSLSPSNSSGYGSVFGCEEHDVDKIPSLNGFAKLKRRRSSCVGAPTPNSKRSKNNMGVIAKRPPKGEYVVERIECVEMD” the “soluble on expression in E. coli” value was “not soluble”.
For “MSLKQAMGYLRQSTTKQQSLAAQKQTIKVLAEKHNIQHITFYSDKQSGRTDKRNGYQQITELIQQGQCDVLCCYRLNRLHRNLKNALKLMKLCQTYHVHILSVRDGYFDMNKAFDRLKLNIFISLAELESDNIGEQVKNGLREKAKQGKLITTHAPFGYHYHNGTFTIDTVKSPTVKAVFNYYLQGYGYKKIAQYLEADNKFINRKPYQVRNIILNPNEGHHHHHH”, the “soluble on expression in E. coli” value was “not soluble”.
For “MDYFDRCYIINLPERRDRRREMEKELERAGMPPMPGRVEFFPAIRPESAGPFPSIGAHGCFLSHLGILRAAKAQGLRNVLILEDDLTFAAQFPEVEEKLVGELRETPWDFAFFGHVLEFPEVPPDRAHLEPYAGPIVTAHFYAVNGAVIDRLLGFLDALLQRPPGHPDGGPMHVDGAYSTFRQQNPDVVTLVAVPSQGWQRSSRSDIAPNRWYDRWPLVRSLVALARRGKTWLRGNRRHAAALEHHHHHH”, the “soluble on expression in E. coli” value was “not soluble”.
